The source of these data is US20070299013A1 (CLEVELAND STATE UNIVERSITY, published 2007).

As a reminder, the Ki is the equilibrium dissociation constant of an inhibitor or competing ligand from its target.

Where no end group is shown, it is not given here. [ ]: non-standard residue; d: D form. sY = N[C@@H](Cc1ccc(OS(=O)(=O)O)cc1)C(=O)O

Experiment [1] deals with T1, N-alpha-[(acetylthio)acetyl]-Phe-Pro-Arg-thrombin (ATA-FPR-thrombin) coupled to agarose through the active … (UniProt P00734 328-622). Briefly: chromatography on 2.5 ml thrombin-agarose, LC/MS of fraction #7 (before the salt elution). Here is the method:
(§1) Since some of the peptides contain aromatic amino acid residues, their concentration was also measured by optical density.
(§2) Each run represents 400 μg of peptide. […] Elution was performed with 2M NaCl and was started at the point indicated by the arrow (fraction #30). The presence of the peptides in the corresponding fractions was monitored by absorbance at 280 nm (shown on the y axis) and by LC/MS (inset).

For experiment [2], the target named is T1, N-alpha-[(acetylthio)acetyl]-Phe-Pro-Arg …. Briefly: chromatography on 2.5 ml thrombin-agarose, A280. On the procedure:
as §1, §2

Experiment [3] addresses T2, human prothrombin (human, UniProt P00734 44-622).
T2 construct: Zymogen substrate of prothrombinase; also called factor II
Briefly: calculated from IC50 of prothrombinase inhibition, IC50=Ki(1+S0/Km), Km 0.4 µM, prothrombin 350 nM. On the procedure:
The buffer used in all cases was composed of 20 mM Hepes, 0.15 M NaCl, 5 mM CaCl₂, pH 7.4 [HBS(Ca²⁺), “assay buffer”]. […] All experiments were performed in triplicates or as indicated. The concentration of each peptide given in the figures and figure legends is their final concentration in the assay. The data were stored using the software FL WinLab (Perkin-Elmer Corp, Norwalk Conn.) and further analyzed and plotted with the software Prizm (GraphPad, San Diego, Calif.). In some cases the data were also analyzed and plotted using DeltaGraph (DeltaPoint, Monterey, Calif.).

Experiment [4] concerns the target T2, human prothrombin. As to the kind of experiment: cell-based or functional assay.
The target in experiment [5] is T2, human prothrombin. As to the kind of experiment: kinetic analysis of prothrombinase inhibition.
Experiment [6] concerns the target T1, N-alpha-[(acetylthio)acetyl]-Phe-Pro-Arg …. As to the kind of experiment: chromatography on 2.5 ml thrombin-agarose, LC/MS of fractions. On the procedure:
as §1, §2

Experiment [7] deals with T2, human prothrombin. As to the kind of experiment: calculated from IC50 (1.6 µM) of prothrombinase inhibition, IC50=Ki(1+S0/Km). Here is the method: All experiments were performed in triplicates or as indicated. The concentration of each peptide given in the figures and figure legends is their final concentration in the assay. The data were stored using the software FL WinLab (Perkin-Elmer Corp, Norwalk Conn.) and further analyzed and plotted with the software Prizm (GraphPad, San Diego, Calif.). In some cases the data were also analyzed and plotted using DeltaGraph (DeltaPoint, Monterey, Calif.).

Consider NRLAAALGIR (Last of five overlapping 10-mers) [HC5 peptide (from region 680-709 of human factor Va heavy chain)], for which the binding result in experiment [1] is “no binding (tested: 400 µg of peptide)”.

B1: P15H control pentadecapeptide (amino acid sequence 337-351 from the middle portion of human factor Va heavy chain) (peptide)
peptide: PVIPANMDKKYRSQH
notes: Negative control peptide; also called control peptide
In the case of B1, the binding result in experiment [2] is “no binding (tested: 400 µg of peptide)”.

For DYDYQNRLAA (Synthetic 10-residue peptide) [HC4 peptide (amino acid residues 695-704 of human factor Va heavy chain)], the Ki with human prothrombin [3] is 5.3 µM. Besides, the “IC50 of inhibition of prothrombinase activity (DAPA thrombin formation assay)” value with human prothrombin [4] was determined as 10 µM.

B2: double sulfonated peptide DYDYQ (1, 2), DY(-SO3)DY(-SO3)Q (peptide)
peptide: D[sY]D[sY]Q
notes: Sulfonated form of the factor Va 695-699 motif; also called D5Q1,2
In the case of B2, in the experiment with human prothrombin [5], the binding result was “binds”.

Consider LEPEDEESDA [HC2 peptide (from region 680-709 of human factor Va heavy chain)], for which the binding result in experiment [6] is on record as “no binding (tested: 400 µg of peptide)”. In the case of KMHDRLEPED (First of five overlapping 10-mers) [HC1 peptide (from region 680-709 of human factor Va heavy chain)], the binding result in experiment [6] was “no binding (tested: 400 µg of peptide)”.

B3: pentapeptide DYDYQ (Asp695-Tyr696-Asp697-Tyr698-Gln699 of human factor Va heavy chain) (peptide)
peptide: DYDYQ
notes: Synthetic, non-sulfonated pentapeptide; also called D5Q
As to B3, the “IC50 of inhibition of prothrombinase function” value in the experiment with human prothrombin [4] is 1.6 µM. Also, the Ki with human prothrombin [7] was 0.85 µM.

Take EESDADYDYQ (Synthetic 10-residue peptide) [HC3 peptide (amino acid region 690-699 of human factor Va heavy chain)]: the Ki with human prothrombin [3] is 6.3 µM. For the same molecule, the “IC50 of inhibition of prothrombinase activity (DAPA thrombin formation assay)” value in the experiment with human prothrombin [4] is 12 µM.
